Results on twelve molecules are retold here after US20250382359A1 (BYOMASS, published 2025).

Where a chain is given by its changes, count along the chain named.

T1: Human GDF15 Fc (human, UniProt Q99988 195-308, limits assumed, biotinylated (EZ-Link Sulfo-NHS-Biotinylation Kit) in the SPR assay)
T1 construct: also called human GDF15-Fc fusion; biotinylated Human GDF15 Fc; not shown: Fc part
T1 sequence: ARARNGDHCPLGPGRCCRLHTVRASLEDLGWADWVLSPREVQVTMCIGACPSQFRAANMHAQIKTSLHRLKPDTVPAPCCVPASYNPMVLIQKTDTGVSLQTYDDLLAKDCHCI

T2: GDF15 (ligand used in the GFRAL/RET cell assays) (UniProt Q99988 197-308, limits assumed)
T2 sequence (looked up): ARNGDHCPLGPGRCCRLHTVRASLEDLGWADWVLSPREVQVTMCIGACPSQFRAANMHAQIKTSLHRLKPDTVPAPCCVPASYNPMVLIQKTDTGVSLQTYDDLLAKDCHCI

T3: Mouse GDF15 Fc (mouse, UniProt Q9Z0J7 189-303, limits assumed)
T3 construct: also called mouse GDF15-Fc fusion; not shown: Fc part
T3 sequence (looked up): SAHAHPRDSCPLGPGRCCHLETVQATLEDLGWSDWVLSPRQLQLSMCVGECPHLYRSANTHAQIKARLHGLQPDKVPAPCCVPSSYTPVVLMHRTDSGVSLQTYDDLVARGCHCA

T4: Cyno GDF15 Fc (cyno, UniProt G7PWZ3 193-308, limits assumed)
T4 construct: also called cyno GDF15-Fc fusion; not shown: Fc part
T4 sequence: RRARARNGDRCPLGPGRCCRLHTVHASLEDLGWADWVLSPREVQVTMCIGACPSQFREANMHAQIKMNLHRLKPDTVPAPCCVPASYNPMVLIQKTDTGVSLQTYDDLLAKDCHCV

T5: GDF10 (UniProt P55107 369-478)
T5 sequence (looked up): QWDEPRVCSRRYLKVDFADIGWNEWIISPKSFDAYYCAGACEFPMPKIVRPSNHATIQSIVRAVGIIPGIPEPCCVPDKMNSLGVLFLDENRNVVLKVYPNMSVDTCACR

T6: Human Activin A Fc (human, UniProt P08476 311-426)
T6 construct: not shown: Fc part
T6 sequence (looked up): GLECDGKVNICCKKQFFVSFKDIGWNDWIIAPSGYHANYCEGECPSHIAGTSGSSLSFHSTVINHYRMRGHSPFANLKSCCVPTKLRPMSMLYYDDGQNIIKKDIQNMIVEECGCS

T7: Human Activin B (human, UniProt P09529 293-407)
T7 sequence (looked up): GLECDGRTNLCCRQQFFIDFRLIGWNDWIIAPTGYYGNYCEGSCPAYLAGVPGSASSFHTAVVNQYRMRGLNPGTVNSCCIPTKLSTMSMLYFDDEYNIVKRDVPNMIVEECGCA

T8: Human BMP9 (human, UniProt Q9UK05 320-429)
T8 sequence (looked up): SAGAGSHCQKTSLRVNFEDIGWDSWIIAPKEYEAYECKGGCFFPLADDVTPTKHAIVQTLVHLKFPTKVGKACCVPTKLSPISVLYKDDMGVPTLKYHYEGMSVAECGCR

T9: GDNF (UniProt P39905 78-211)
T9 sequence (looked up): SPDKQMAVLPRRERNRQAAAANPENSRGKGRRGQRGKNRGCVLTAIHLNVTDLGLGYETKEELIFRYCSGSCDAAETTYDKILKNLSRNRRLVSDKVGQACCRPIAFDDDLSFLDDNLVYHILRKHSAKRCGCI

T10: Human BMP10 (human, UniProt O95393 317-424)
T10 sequence (looked up): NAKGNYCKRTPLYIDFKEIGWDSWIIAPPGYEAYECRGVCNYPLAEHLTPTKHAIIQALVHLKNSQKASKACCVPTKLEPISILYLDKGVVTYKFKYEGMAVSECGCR

B1: GDF15 antibody agent Clone F, IgG (antibody, V domains shown)
VH: QVQLVQSGAEVKKPGSSVKVSCKASGGTFGGYAISWVRQAPGQGLEWMGGIIPPYATANYAQKFQGRVTITADESTSTAYMELSSLRSEDTAVYYCARGVGTTHLDVWGQGTMVTVSS
VL: not shown
B2: GDF15 antibody agent Clone I, IgG (antibody, V domains shown)
VH: QVQLVQSGAEVKKPGASVKVSCKASGYTFTDEGINWVRQAPGQGLEWMGWITAYSGDTVYAQKLQGRVTMTTDTSTSTAYMELRSLRSDDTAVYYCARGPGQYADVDVWGQGTMVTVSS
VL: DIQMTQSPSSVSASVGDRVTITCRASQGISSWLAWYQQKPGKAPKLLIYAASSLQSGVPSRFSGSGSGTDFTLTISSLQPEDFATYYCQQANSFPITFGGGTKVEIKR
B3: GDF15 antibody agent Clone J, IgG (antibody, V domains shown)
VH: B2 VH with D31S, E32Y, T52D, D57S, V59N
VL: B2 VL
B4: GDF15 antibody agent Clone B, Fab (Fab, V domains shown)
VH: QVQLQESGPGLVKPSQTLSLTCTVSGGSISSGGIYWTWIRQHPGKGLEWIGAIAYSGSTYYNPSLKSRVTISVDTSKNQFSLKLSSVTAADTAVYYCARGIEYQHFDYWGQGTLVTVSS
VL: not shown
notes: Fab; CH1 and CL of the Fab not specified; also called Fab of Clone B
B5: GDF15 antibody agent Clone C, Fab (Fab, V domains shown)
VH: B4 VH with I34Y, T37S, A54V, S58H, I101V, D107S, Y108L
VL: not shown
notes: Fab; CH1 and CL of the Fab not specified; also called Fab of Clone C
B6: GDF15 antibody agent Clone A, Fab (Fab, V domains shown)
VH: B4 VH with S30T, I34S, T37S, A54V, I101V
VL: not shown
notes: Fab; CH1 and CL of the Fab not specified; also called Fab of Clone A
B7: GDF15 antibody agent Clone D, Fab (Fab, V domains shown)
VH: B4 VH with S30N, I34Y, A54Y, Y60V, I101V, D107N, Y108E
VL: not shown
notes: Fab; CH1 and CL of the Fab not specified; also called Fab of Clone D
B8: GDF15 antibody agent Clone F, Fab (Fab, V domains shown)
VH: B1 VH
VL: not shown
notes: Fab; CH1 and CL of the Fab not specified; also called Fab of Clone F
B9: GDF15 antibody agent Clone G, Fab (Fab, V domains shown)
VH: B1 VH with G30Q, V37A, T102E, T103L
VL: not shown
notes: Fab; CH1 and CL of the Fab not specified; also called Fab of Clone G
B10: GDF15 antibody agent Clone N, Fab (Fab, V domains shown)
VH: QVQLVQSGAEVKKPGASVKVSCKASGYTFTDYGIFWVRQAPGQGLEWMGWITAYSGDTHYAQKLQGRVTMTTDTSTSTAYMELRSLRSDDTAVYYCVRDTQYGGSPYWGQGTLVTVSS
VL: EIVMTQSPATLSVSPGERATLSCRASQSVSSNLAWYQQKPGQAPRLLIYGASTRATGIPARFSGSGSGTEFTLTISSLQSEDFAVYYCQQYNNWPITFGGGTKVEIK
notes: Fab; CH1 and CL of the Fab not specified; also called Fab of Clone N
B11: GDF15 antibody agent Clone Q, Fab (Fab, V domains shown)
VH: B4 VH
VL: not shown
notes: Fab; CH1 and CL of the Fab not specified; also called Fab of Clone Q
B12: GDF15 antibody agent Clone R, Fab (Fab, V domains shown)
VH: B4 VH with K66E
VL: not shown
notes: Fab; CH1 and CL of the Fab not specified; also called Fab of Clone R

T11 sequence (O95390 299-407 limits assumed): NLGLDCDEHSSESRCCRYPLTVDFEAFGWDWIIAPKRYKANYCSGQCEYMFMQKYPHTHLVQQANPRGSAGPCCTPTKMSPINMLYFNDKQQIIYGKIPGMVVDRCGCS

The first experiment deals with T1, Human GDF15 Fc. Nature of the experiment: BLI Octet; IgG on sensor, 100 nM antigen (avid). The method, then:
Briefly, ForteBio affinity measurements were performed by loading IgGs on-line onto AHC sensors. Sensors were equilibrated off-line in assay buffer for 30 min and then monitored on-line for 60 seconds for baseline establishment. Sensors with loaded IgGs were exposed to 100 nM antigen for 3 minutes, and afterwards were transferred to assay buffer for 3 min for off-rate measurement. All kinetics were analyzed using the 1:1 binding model.
In turn, B1 had a Kd of 0.244 nM.
On to B2, for which the dissociation constant (Kd) came to 0.262 nM.
In the case of B3, binding was put at a Kd of 0.276 nM.

The target of the next experiment is T2, GDF15 (ligand used in the GFRAL/RET …). Nature of the experiment: cell-based or functional assay.
For B4, the “GDF15 GFRAL RET pERK Fab IC50 pM” value was found to be 30.9 pM.
For B5, the “GDF15 GFRAL RET pERK Fab IC50 pM” value was 36.8 pM.
With B6, the “GDF15 GFRAL RET pERK Fab IC50 pM” value turned out to be 26.5 pM.
Same read-out and setting: the result for B7 reads 27 pM.
B1: the “GDF15-GFRAL RET pERK IC50 (pM)” value came out at 34.9 pM and the “GDF15-GFRAL-RET Luciferase IC50 (pM)” value came out at 91.3 pM.
As to B8, the “GDF15 GFRAL RET pERK Fab IC50 pM” value came out at 11.2 pM.
In the case of B9, the “GDF15 GFRAL RET pERK Fab IC50 pM” value came to 33.2 pM.
As for B2, the “GDF15-GFRAL RET pERK IC50 (pM)” value was 34.5 pM and the “GDF15-GFRAL-RET Luciferase IC50 (pM)” value worked out at 79.3 pM.
Turning to B3, the “GDF15-GFRAL RET pERK IC50 (pM)” value was 30.3 pM and the “GDF15-GFRAL-RET Luciferase IC50 (pM)” value came to 110 pM.
Consider B10, for which the “GDF15 GFRAL RET pERK Fab IC50 pM” value is 322 pM.

Another experiment deals with T3, Mouse GDF15 Fc. Nature of the experiment: BLI Octet; antigen on sensor, 100 nM Fab (monovalent).
On to B5, for which binding was put at a Kd of 156 nM.
Same read-out and setting: the result for B11 reads 204 nM; that for B12, 234 nM; that for B7, 157 nM.
B8 yielded a Kd of 26.1 nM.
Still for that read-out and setting: the result for B10 reads 2.56 nM.

The target of a further experiment is T4, Cyno GDF15 Fc. The description is as above.
With B4, binding was characterised by a dissociation constant (Kd) of 0.349 nM.
As for B5, the Kd was found to be 0.36 nM.
Still for that read-out and setting: the result for B11 reads 0.327 nM.
Still for that read-out and setting: the result for B6 reads 0.536 nM.
On the same count and under the same terms, the result for B12 reads 0.366 nM.
For the molecule B7, the affinity, expressed as Kd, was 0.562 nM.
In turn, B8 displayed a Kd of 0.553 nM.
Still for that read-out and setting: the result for B9 reads 0.474 nM.

The next experiment deals with T1, Human GDF15 Fc. Nature of the experiment: SPR Biacore 8K; biotinylated antigen captured, Fab analyte. The protocol: Kinetic analysis was conducted at 25° C. in HBS-EP+running buffer (10 mM HEPES pH 7.4, 150 mM NaCl, 3 mM EDTA, 0.05% Surfactant P20) using a Biacore 8K optical biosensor (Cytiva, Marlborough, MA). The sample compartment was maintained at 10° C. for the duration of the experiment. The Biacore 8K can analyze up to 8 separate interactions in a single cycle.
Each experiment cycle began with an injection (300 s at 2 μL/min) overflow cells 1 and 2 of a 1:100 solution of biotin CAPture reagent (Cytiva) in running buffer. This was followed by an injection (45 s at 10.0 μL/min) of biotinylated human GDF15 (5 nM) overflow cell 2. […] The dissociation of the antibodies were monitored for 3420 s. Finally, an injection (120 s at 10 μL/min) of regeneration solution (6 M Guanidine-HCl in 0.25 M NaOH) overflow cells 1 and 2 prepared the sensor surface for another cycle. Several blank buffer samples were injected (300 s at 30 μL/min) overflow cells 1 and 2 throughout the duration of the experiment and used for reference surface subtraction—each were monitored for the same amount of dissociation time (3420 s) and regenerated under the same conditions as those for the Fab sample injections.
In the case of B10, binding was put at a Kd of 0.545 nM, the dissociation rate constant (koff) was 0.00318 s⁻¹ and the kon amounted to 5.84e+06 M⁻¹ s⁻¹.

The target of a further experiment is T5, GDF10. Briefly: BLI Octet; IgG on sensor.
Regarding B2, the binding result is “no binding (tested: 100 nM)”.
For B3, the binding result is on record as “no binding (tested: 100 nM)”.

Another experiment addresses T6, Human Activin A Fc. Nature of the experiment: BLI Octet; IgG on sensor.
Consider B1, for which the binding result was “no binding (tested: 100 nM)”.
As for B2, the binding result is on record as “no binding (tested: 100 nM)”.
In the case of B3, the binding result is given as “no binding (tested: 100 nM)”.

The target of the next experiment is T7, Human Activin B. Briefly: BLI Octet; IgG on sensor.
For the molecule B1, the binding result is “no binding (tested: 100 nM)”.
With B2, the binding result was “no binding (tested: 100 nM)”.
Still for that read-out and setting: the result for B3 reads “no binding (tested: 100 nM)”.

For a further experiment, the target named is T8, Human BMP9. Nature of the experiment: BLI Octet; IgG on sensor.
Take B2: the binding result is reported as “no binding (tested: 100 nM)”.
As to B3, the binding result is “no binding (tested: 100 nM)”.

The next experiment has as its target T9, GDNF. Briefly: BLI Octet; IgG on sensor.
Consider B1, for which the binding result is reported as “no binding (tested: 100 nM)”.

A further experiment addresses T11, GDF11 (UniProt O95390 299-407).
T11 construct: Also used as ligand in the Activin 2B receptor/SMAD reporter assay
Briefly: BLI Octet; IgG on sensor.
In the case of B1, the binding result was “no binding (tested: 100 nM)”.
The same measure, in the same setting: the result for B2 reads “no binding (tested: 100 nM)”.
Consider B3, for which the binding result was “no binding (tested: 100 nM)”.

The target in a further experiment is T10, Human BMP10. Nature of the experiment: BLI Octet; IgG on sensor.
Take B1: the binding result is “no binding (tested: 100 nM)”.
On the same count and under the same terms, the result for B2 reads “no binding (tested: 100 nM)”; that for B3, “no binding (tested: 100 nM)”.

The next experiment deals with GDF8 (UniProt O14793 267-375). Nature of the experiment: BLI Octet; IgG on sensor.
For the molecule B1, the binding result is on record as “no binding (tested: 100 nM)”.
Same read-out and setting: the result for B2 reads “no binding (tested: 100 nM)”; that for B3, “no binding (tested: 100 nM)”.
